The values that follow come from publication PMC10786891, “Massively parallel profiling of RNA-targeting CRISPR-Cas13d”.

First the molecules themselves.
T1: EsCas13d, nuclease-dead (Eubacterium siraeum, UniProt B0MS50, R295A;H300A;R849A;H854A)
T1 sequence: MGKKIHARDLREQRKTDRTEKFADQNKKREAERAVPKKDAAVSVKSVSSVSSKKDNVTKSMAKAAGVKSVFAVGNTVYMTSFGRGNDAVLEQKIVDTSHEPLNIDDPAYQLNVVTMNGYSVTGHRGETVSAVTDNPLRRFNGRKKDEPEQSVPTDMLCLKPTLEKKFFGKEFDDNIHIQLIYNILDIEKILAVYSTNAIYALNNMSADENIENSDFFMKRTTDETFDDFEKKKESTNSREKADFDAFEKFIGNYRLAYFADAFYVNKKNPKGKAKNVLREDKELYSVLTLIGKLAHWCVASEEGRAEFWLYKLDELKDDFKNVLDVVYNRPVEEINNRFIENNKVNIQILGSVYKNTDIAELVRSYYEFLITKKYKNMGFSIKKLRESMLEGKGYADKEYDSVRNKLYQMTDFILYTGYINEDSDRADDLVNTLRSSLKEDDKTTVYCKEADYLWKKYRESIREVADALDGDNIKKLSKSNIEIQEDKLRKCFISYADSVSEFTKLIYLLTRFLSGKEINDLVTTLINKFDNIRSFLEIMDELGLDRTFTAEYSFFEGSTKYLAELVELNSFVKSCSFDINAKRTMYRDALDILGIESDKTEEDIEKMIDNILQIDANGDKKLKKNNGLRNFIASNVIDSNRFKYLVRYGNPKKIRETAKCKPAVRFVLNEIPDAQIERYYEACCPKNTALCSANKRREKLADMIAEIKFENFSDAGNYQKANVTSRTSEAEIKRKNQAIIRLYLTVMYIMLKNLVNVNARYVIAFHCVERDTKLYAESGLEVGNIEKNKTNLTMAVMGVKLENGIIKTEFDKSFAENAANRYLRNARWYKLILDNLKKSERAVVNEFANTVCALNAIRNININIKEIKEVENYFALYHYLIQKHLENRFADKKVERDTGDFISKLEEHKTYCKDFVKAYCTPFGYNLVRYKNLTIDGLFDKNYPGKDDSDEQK

B1: target 1 insG 3' of 22,insU 3' of 20 (mixed)
RNA 1: CACCCGUGCAAAAAUGCAGGGGUCUAAAACUGAGCGGAUAACCUCUCUAUGG
RNA 2: GGGAAUGGAUCCACAUCUACGAAUUCGUACGCAUUAGAGAGGUUAUCCGCUCACCGAGAUCGGAAGAGCACACGU
B2: target 1 G15C,C22U (mixed)
RNA 1: B1 RNA 1
RNA 2: GGGAAUGGAUCCACAUCUACGAAUUCGUAUCAUAGACAGGUUAUCCGCUCACCGAGAUCGGAAGAGCACACGU
B3: target 1 insA 3' of 22,insG 3' of 8 (mixed)
RNA 1: B1 RNA 1
RNA 2: GGGAAUGGAUCCACAUCUACGAAUUCGUACACAUAGAGAGGUUAUGCCGCUCACCGAGAUCGGAAGAGCACACGU
B4: target 3 complement block 4-8 (mixed)
RNA 1: CACCCGUGCAAAAUUGCAGGGGUCUAAAACGACCUGAAUAUUUCAGAUCAAA
RNA 2: GGGAAUGGAUCCACAUCUACGAAUUCGUUUUUGAUCUGAAAUAAAGUCGUCUGCAGAUCGGAAGAGCACACGU
B5: target 3 insC 3' of 9,insG 3' of 9 (mixed)
RNA 1: B4 RNA 1
RNA 2: GGGAAUGGAUCCACAUCUACGAAUUCGUUUUUGAUCUGAAAUACGUUCAGGUCUGCAGAUCGGAAGAGCACACGU
B6: target 3 insG 3' of 8,insG 3' of 2 (mixed)
RNA 1: B4 RNA 1
RNA 2: B5 RNA 2 with C44U, U47C, C48A, A49G, G51U, U52G
B7: target 3 insU 3' of 11,insC 3' of 5 (mixed)
RNA 1: B4 RNA 1
RNA 2: B5 RNA 2 with A43U, C44A, G45U, U47C, C48A, A49C
B8: target 3 G3C,U8C (mixed)
RNA 1: B4 RNA 1
RNA 2: B4 RNA 2 with A44C, A45U, G46C, U47A, C48G, G49C
B9: target 3 U2C,C6G (mixed)
RNA 1: B4 RNA 1
RNA 2: B4 RNA 2 with A44U, A45U, U47A, C48G, U50C
B10: target 3 U2C (mixed)
RNA 1: B4 RNA 1
RNA 2: B4 RNA 2 with A44U, A45U, G46C, U47A, C48G, U50C
B11: target 3 insU 3' of 6,insU 3' of 6 (mixed)
RNA 1: B4 RNA 1
RNA 2: B5 RNA 2 with C44U, G45U, U46C, C48U
B12: target 3 G4U,C6U (mixed)
RNA 1: B4 RNA 1
RNA 2: B4 RNA 2 with A44U, A45U, G46U, U47A, C48U
B13: target 3 insG 3' of 6,insG 3' of 5 (mixed)
RNA 1: B4 RNA 1
RNA 2: B5 RNA 2 with C44U, G45U, U46C, U47G, C48A, A49G
B14: target 3 A5G (mixed)
RNA 1: B4 RNA 1
RNA 2: B4 RNA 2 with A44U, A45U, G46C, U47G, C48G
B15: target 3 insC 3' of 8,insA 3' of 8 (mixed)
RNA 1: B4 RNA 1
RNA 2: B5 RNA 2 with C44U, G45C, U46A
B16: target 3 C1A,U7G (mixed)
RNA 1: B4 RNA 1
RNA 2: B4 RNA 2 with A44U, A45G, G46C, U47A, C48G, C51A
B17: target 3 U2G,A13G (mixed)
RNA 1: B4 RNA 1
RNA 2: B4 RNA 2 with A39G, A44U, A45U, G46C, U47A, C48G, U50G
B18: target 3 C6G,A11G (mixed)
RNA 1: B4 RNA 1
RNA 2: B4 RNA 2 with A41G, A44U, A45U, U47A, C48G
B19: target 3 insA 3' of 15,insU 3' of 1 (mixed)
RNA 1: B4 RNA 1
RNA 2: GGGAAUGGAUCCACAUCUACGAAUUCGUUUUUGAUCUAGAAAUAUUCAGGUCUUGCAGAUCGGAAGAGCACACGU
B20: target 3 insC 3' of 8,insC 3' of 5 (mixed)
RNA 1: B4 RNA 1
RNA 2: B5 RNA 2 with C44U, G45C, U47C, C48A, A49C
B21: target 3 G4C,A9G (mixed)
RNA 1: B4 RNA 1
RNA 2: B4 RNA 2 with A43G, A44U, A45U, G46C, U47A
B22: target 3 insU 3' of 11,insC 3' of 4 (mixed)
RNA 1: B4 RNA 1
RNA 2: B19 RNA 2 with A38G, G39A, A42U, G50C, U51G, C52U, U53C
B23: target 3 insU 3' of 5,insA 3' of 2 (mixed)
RNA 1: B4 RNA 1
RNA 2: B5 RNA 2 with C44U, G45U, U46C, U47A, C48U, A49G, G51U, U52A
B24: target 3 A12U (mixed)
RNA 1: B4 RNA 1
RNA 2: B4 RNA 2 with A40U, A44U, A45U, G46C, U47A, C48G
B25: target 3 insC 3' of 5,insG 3' of 1 (mixed)
RNA 1: B4 RNA 1
RNA 2: B5 RNA 2 with C44U, G45U, U46C, U47A, A49G, G51U, U52C, C53G
B26: target 3 C1G,A12U (mixed)
RNA 1: B4 RNA 1
RNA 2: B4 RNA 2 with A40U, A44U, A45U, G46C, U47A, C48G, C51G
B27: target 3 U7A,U22A (mixed)
RNA 1: B4 RNA 1
RNA 2: B4 RNA 2 with U30A, A44U, G46C, U47A, C48G

Numbering of substitutions follows the chain as printed. Numbers in names are those of the source.

The term Kd denotes the constant that tells how readily two partners part at equilibrium. Low values mean higher affinity, high ones lower affinity.

The target in the series is T1, EsCas13d, nuclease-dead. In words: crRNA (strand 1, pre-loaded); Mg2+; 40 mM Tris-HCl pH 7.5, 150 mM NaCl, 6 mM MgCl2, 1 mM DTT, 0.1% Tween-20, 0.2 mg/ml BSA; 25 C; 10 min per concentration, then washed. Conditions: tags: His6-TwinStrep-SUMO cleaved; N-terminal SNAP kept (SNAP-Surface 488); label: 3' end held by stalled T7 RNA polymerase.
For the molecule B1, the Kd was 38 ± 5 nM.

Take B2: the Kd was roughly 70 nM. For B3 the value was 17.4 ± 1 nM; for B4, 51.5 ± 5.5 nM; for B5, 118 ± 50 nM. As to B6, binding was put at a Kd of 57 ± 27 nM.

The molecule B7 had a Kd of 81.5 ± 12.5 nM.

On to B8, for which the Kd is 71 ± 6 nM. For B9 the value was 31.5 ± 4.5 nM; for B10, 88.5 ± 18 nM; for B11, 17.3 ± 1.2 nM. For B12 the value was 7.45 ± 0.85 nM; for B13, 8.85 ± 0.8 nM. Next, B14: 20.9 ± 1.8 nM; B15: 76.5 ± 19 nM; B16: 24.5 ± 6 nM. Take B17: the Kd amounted to 73.5 ± 29 nM. For B18 the value was 60 ± 18 nM; for B19, 51 ± 5 nM; for B20, 74.5 ± 9.5 nM.

B21 had a dissociation constant Kd of 43.5 ± 6.5 nM.

Turning to B22, binding was characterised by a dissociation constant (Kd) of 90 ± 26 nM. In turn, B23 showed a Kd of 21.2 ± 3.65 nM.

The molecule B24 came in with a dissociation constant Kd of 73.5 ± 19.5 nM. This Kd is about 3.5-fold higher than that of the molecule before. For B25 the value was 38.5 ± 13 nM; for B26, 63 ± 18 nM. Take B27: the Kd is 42.5 ± 7.25 nM.
